Laboratory results from patent publication US20110189292A1 (ALLERGAN, published 2011).

Assays:
[1] = biological target: T1, silk fibroin, sericin-extracted, from degummed Bombyx mori silk, dissolved in 9.3 M LiBr and dialysed (Bombyx mori, UniProt P05790 22-5263; P21828 17-262, limits assumed); assay: HPLC of 23RGD extracted from lyophilised silk precipitate; formulation BASE
T1 construct: also called silk molecules
Description: (§1) The amount of 23RGD bound to silk precipitates was quantified by analyzing lyophilized samples. The 23RGD was removed by incubating the samples for 4 hours in a dissolving buffer, then centrifuging on an Eppendorf 5415C (Eppendorf North America Inc., Westbury, N.Y.) at 16,000 g (RCF) for 30 minutes and the supernatant collected. This supernatant was then centrifuged in identical fashion and the final supernatant collected for HPLC analysis using a PerkinElmer Series 200 (PerkinElmer, Waltham, Mass.). The 23RGD peak areas from each curve were compared against a standard curve. 1-Way ANOVA was used to test for significant differences caused by changing silk concentration, 23RGD concentration, and accelerant volume. A Student's t-test was used to test the significance of differences resulting from altered ethanol concentrations.

[2] = biological target: T1, silk fibroin, sericin-extracted, from …; assay: HPLC of 23RGD extracted from lyophilised silk precipitate; formulation AVHI
Description: as §1

[3] = biological target: T1, silk fibroin, sericin-extracted, from …; assay: HPLC of 23RGD extracted from lyophilised silk precipitate; formulation AVLO
Description: as §1

[4] = biological target: T1, silk fibroin, sericin-extracted, from …; assay: HPLC of 23RGD extracted from lyophilised silk precipitate; formulation RHI
Description: as §1

[5] = biological target: T1, silk fibroin, sericin-extracted, from …; assay: HPLC of 23RGD extracted from lyophilised silk precipitate; formulation printed as RLO
Description: as §1

[6] = biological target: T1, silk fibroin, sericin-extracted, from …; assay: HPLC of 23RGD extracted from lyophilised silk precipitate; formulation printed as RMED
Description: as §1

[7] = biological target: T1, silk fibroin, sericin-extracted, from …; assay: reading of the HPLC ratios of the silk precipitates
Description: as §1

[8] = biological target: T1, silk fibroin, sericin-extracted, from …; assay: HPLC of 23RGD extracted from the rinsed silk gel, against a standard curve
From the text: 23RGD-infused gels were studied to quantify the amount of 23RGD bound to the silk-hydrogel device as well as the quantity of free 23RGD which might be rinsed free of the device under relevant conditions. Briefly, samples of 23RGD-infused gel were cast and rinsed according to the methods above, with samples of rinse buffer being collected from each rinse for subsequent analysis by HPLC. Additionally, subsequent to the last rinse, the gel samples were mechanically pulverized by means of a stainless steel stirring rod and the adsorbed 23RGD removed by incubation for 4 hours in a dissolving buffer. This mixture of gel and solvent was then centrifuged on an Eppendorf 5415C at 16,000 g RCF for 30 minutes. The supernatant was collected and centrifuged another 30 minutes at 16,000 g RCF after which time the supernatant was collected in a sample vial for HPLC analysis. Samples of rinse buffer from the first and last rinse were centrifuged in the same fashion after being diluted with the same solvent the gel was extracted with in a volumetric ratio of 1 part rinse buffer to 4 parts solvent. To ensure 23RGD-hydrogel device rinse-exposed surface area was not a limiting factor, the same rinse and extraction process was performed upon devices pulverized after gelation and before rinsing. […]

[9] = biological target: T1, silk fibroin, sericin-extracted, from …; assay: HPLC of 23RGD extracted from lyophilised silk precipitate; formulation SCLO
Description: as §1

[10] = biological target: T1, silk fibroin, sericin-extracted, from …; assay: HPLC of 23RGD extracted from silk precipitate; formulation AVLO, against the calculated ratio
Description: as §1
(§2) Few of the silk precipitates entrained a molar ratio similar to what was initially calculated (FIG. 23). Four groups, SCVLO, AVHI, RHI, and RLO contained ratios similar to their calculated values of RGD per mole of silk. The six remaining groups contained ratios substantially greater than their calculated values. In the cases of AVLO, BASE, RMED, and SCLO, the RGD quantities were about 2-fold greater than expected. Although not wishing to be limited by theory, this greater observed molar ratio may be indicative of the formation of a RGD bi-layer. […]

[11] = biological target: T1, silk fibroin, sericin-extracted, from …; assay: HPLC of 23RGD extracted from lyophilised silk precipitate; formulation SCVLO
Description: as §1

[12] = biological target: T1, silk fibroin, sericin-extracted, from …; assay: HPLC of 23RGD extracted from silk precipitate; formulation ECLO, against the calculated ratio
Description: as §1, §2

[13] = biological target: T1, silk fibroin, sericin-extracted, from …; assay: HPLC of 23RGD extracted from silk precipitate; formulation 0.6S 3R 10:1
Description: as §1
Precipitate samples generated at a calculated 10:1 23RGD:silk ratio consistently generated a “correct” molecular binding ratio. In the case of AVHI, this runs contrary to the trend of bound 23RGD concentrations being approximately double the projected values as indicated by AVLO and BASE (about 5:1 and about 9:1, respectively). This might be explained by saturation of the silk with 23RGD in the case of 10:1 23RGD precipitates. […]

B1: 23RGD peptide (HOOC-GRGDIPASSKG4SRL6R-NH2) (peptide)
peptide: GRGDIPASSKGGGGSRLLLLLLR
modifications: not fully specified; -NH2 at the Arg end as printed (HOOC-Gly-...-Arg-NH2). An optional variant, SEQ ID NO: 2, is acylated (Ac-) and has D-arginines.
notes: also called 23RDG
Q: B1 was tested. Which “23RGD:silk ratio bound” value [1] did it give?
A: 8.7 mol 23RGD per mol silk

Q: And the “23RGD:silk ratio bound” value [2]?
A: 10.5 mol 23RGD per mol silk

Q: And the “23RGD:silk ratio bound” value [3]?
A: 5.2 mol 23RGD per mol silk

Q: What about the “23RGD:silk ratio bound” value [4] of the same binder?
A: 10.7 mol 23RGD per mol silk

Q: What about the “23RGD:silk ratio bound” value [5] of the same binder?
A: 1.1 mol 23RGD per mol silk

Q: What about the “23RGD:silk ratio bound” value [6] of the same binder?
A: 6.95 mol 23RGD per mol silk

Q: And the “apparent saturation, 23RGD:silk ratio” value [7]?
A: ~10 mol 23RGD per mol silk

Q: What about the “23RGD:silk ratio bound” value [8] of the same binder?
A: 3.35 mol 23RGD per mol silk

Q: What about the “23RGD:silk ratio bound” value [9] of the same binder?
A: 9.9 mol 23RGD per mol silk

Q: And the “fold of bound RGD over the calculated RGD:silk ratio” value [10]?
A: ~2 fold

Q: And the “23RGD:silk ratio bound” value [11]?
A: 11 mol 23RGD per mol silk

Q: And the “fold of bound RGD over the calculated RGD:silk ratio” value [12]?
A: ~1.5 fold

Q: And the “23RGD:silk ratio bound” value [13]?
A: ~10 mol 23RGD per mol silk
